Data on eight substances can be found in PMC8469155.

Assay [1] addresses alternatively spliced EDB domain of fibronectin (recombinant EDB protein).
Assay [2] has as its target L19-TNF^I97A (human). The assay is described as follows: SEC; Superdex 200 Increase 10/300 column, ÄKTA FPLC, protein dialysed into PBS pH 7.4; peak at 12 mL corresponds to the homotrimer. Background: Size exclusion chromatography separates by hydrodynamic size, large species first.
Assay [3] addresses L19-TNF^WT (human). The description is as above.
The target in another assay is L19-TNF^Y59F (human). Described as above.
Assay [4] concerns the target tumor necrosis factor receptor 1 (TNFR-1) (UniProt P19438). Description: SPR. Conditions: response read at end of injection (~50-55 s), L19-TNF mutein captured on EDB-coated CM5 chip, read off a plot.
The target of another assay is L19-TNF^Y119S (human). Description: SEC; Superdex 200 Increase 10/300 column, ÄKTA FPLC, protein dialysed into PBS pH 7.4; peak at 12 mL corresponds to the homotrimer.
The next assay addresses L19-TNF^S147A (human). The description is as above.
For a further assay, the target named is L19-TNF^Q102N (human). The assay is described as above.
The target in assay [5] is L19-TNF^I97A (human). The assay is described as follows: SPR; BIAcore X100; EDB covalently immobilised on a CM5 chip (1500-2000 RU), L19-TNF protein captured on it through L19-EDB (340 RU); TNFR1 injected for 30 s in a 1:2 dilution series from 1000 nM; PBS pH 7.4; regeneration 10 mM HCl; independent chip for each protein; global fit, 1:1 Langmuir model.
The target in assay [6] is L19-TNF^WT (human). The description is as above.

The stoichiometry N is a count of units in the complex or per binding partner. On to L19-TNF^I97A, for which the EC50 of cytotoxicity on A-375 cells (cell viability, with actinomycin D), 100 nM EDB Coating (M); without EDB coating 2.273 × 10^−9 M in assay [1] is 2.25e-10 M. Besides, the stoichiometry N with L19-TNF^I97A (human) [2] is 3.
For L19-TNF^WT, the stoichiometry N in the assay with L19-TNF^WT (human) [3] came out at 3.
For L19-TNF^Y59F, in the assay with L19-TNF^Y59F (human), the stoichiometry N is 3.
In the case of L19-TNF^WT Q102N, the response in assay [4] (125 nM TNFR1) was 28 RU; in assay [4] (500 nM TNFR1), 45 RU; in [4] (1000 nM TNFR1), 45 RU.
In turn, L19-TNF^Y119S gave a stoichiometry N with L19-TNF^Y119S (human) of 3.
As for L19-TNF^S147A, the stoichiometry N in the assay with L19-TNF^S147A (human) was found to be 3.
L19-TNF^Q102N: the stoichiometry N in the assay with L19-TNF^Q102N (human) turned out to be 3.
As a reminder, the Kd is the constant that tells how readily two partners part at equilibrium. Low readings indicate tighter binding, high ones weaker binding. “tumor necrosis factor receptor 1 (TNFR-1) (from UniProt P19438 30-455)” gave a fold faster dissociation rate against L19-TNF^WT with L19-TNF^I97A (human) [5] of 50 fold. The substance also showed a dissociation constant Kd with L19-TNF^WT (human) [6] of 10 nM.
